The nature of this data set: protein stability index of a GFP-peptide fusion (GPS, HEK-293T) (PSI 1-6); higher = more stable. Particulars: c terminus: a fixed tail appended.

± gives the standard deviation.
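Note: 24-mer peptide tiles fused after GFP, lentivirally expressed, FACS-sorted into six equal bins by GFP/DsRed ratio, decoded by Illumina sequencing, PSI is the read-weighted mean bin number.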

VKETGYFFIYGQVLYTDKTYAMGH [TNFSF13B]: the protein stability index by setting is: (treatment: DMSO) 2.86 ± 1.5; (treatment: MLN4924 1 uM, 8 h) 2.41 ± 0.86.

Consider ILFLNKKDLFEEKIKKSPLTICYP [GNAI1], for which the protein stability index runs as follows: (treatment: DMSO) 2.43 ± 0.9; (treatment: MLN4924 1 uM, 8 h) 2.21 ± 0.75.

Take FSHDLTLERKCEKRSVYIDARDEE [ZC3H15]: the protein stability index was found to be 4.47 ± 0.24 (treatment: DMSO) and 4.64 ± 0.34 (treatment: MLN4924 1 uM, 8 h).

In the case of MRGVAEVKEPCSLPMLSVDMENKE [SAMD13], the protein stability index turned out to be 5.32 ± 0.18 (treatment: DMSO) and 5.53 ± 0.21 (treatment: MLN4924 1 uM, 8 h).

For the sequence FQESASTPETRAKFTQDNLCRAQR [TEKT4], the protein stability index by setting is: (treatment: DMSO) 4.48 ± 0.18; (treatment: MLN4924 1 uM, 8 h) 4.4 ± 0.25.

INYKLKSVAHLPWRMLTYKALNTF [CLPTM1] yielded a protein stability index (treatment: DMSO) of 2.44 ± 0.65 and a protein stability index (treatment: MLN4924 1 uM, 8 h) of 2.31 ± 0.36.

Take KYGGPNHHLPLPDNWKSQVEPETR [CPN1]: the protein stability index worked out at 4.16 ± 0.3 (treatment: DMSO) and 4.55 ± 0.28 (treatment: MLN4924 1 uM, 8 h).

On to PALLEATGGAAGAGGAGRGEDEEN [KCTD13], for which the protein stability index runs as follows: (treatment: DMSO) 5.62 ± 0.24; (treatment: MLN4924 1 uM, 8 h) 5.64 ± 0.24.

TLDKCGICQGDGSSCTHVTGNYRK [ADAMTSL2]: the protein stability index is, setting by setting: (treatment: DMSO) 4.91 ± 0.35; (treatment: MLN4924 1 uM, 8 h) 4.97 ± 0.33.

For the sequence GTKCHGCDFKIDAGDRFLEALGFS [PDLIM7], the protein stability index runs as follows: (treatment: DMSO) 2.63 ± 0.22; (treatment: MLN4924 1 uM, 8 h) 2.42 ± 0.36.

As for TGFLIIILAIIAKEGDCAPEEKIW [MAGEA6], the protein stability index is, setting by setting: (treatment: DMSO) 2.93 ± 0.65; (treatment: MLN4924 1 uM, 8 h) 2.71 ± 0.61.

MAHVDFRPPAYSPAQRSHTYTHGL: the protein stability index was 2.8 ± 0.25 (treatment: DMSO) and 2.88 ± 0.32 (treatment: MLN4924 1 uM, 8 h).

As to RSHPDNAIPIKSWFSDPSDTALLN [CTDNEP1], the protein stability index by setting is: (treatment: DMSO) 3.73 ± 0.18; (treatment: MLN4924 1 uM, 8 h) 3.87 ± 0.18.

As for SEATLPAQMSTLHVSPPPSADPAR [PDLIM4], the protein stability index is, setting by setting: (treatment: DMSO) 5.26 ± 0.17; (treatment: MLN4924 1 uM, 8 h) 5.17 ± 0.18.

As to GSLHYTTLRTLTGQDTMLKAMFSG [KCTD13], the protein stability index is, setting by setting: (treatment: DMSO) 2.46 ± 0.26; (treatment: MLN4924 1 uM, 8 h) 2.61 ± 0.21.

Consider LAGAALEPAGGGRSREARSRLLLL [SMAD6], for which the protein stability index is 3.38 ± 0.27 (treatment: DMSO) and 3.65 ± 0.31 (treatment: MLN4924 1 uM, 8 h).

On to MNHYKKTTLEIHNTEERQKRQVTH [PTPN9], for which the protein stability index reads like this: (treatment: DMSO) 4.52 ± 0.06; (treatment: MLN4924 1 uM, 8 h) 4.49 ± 0.36.

For EQKAAGSASAKRVWNMTATRPKKM [FATE1], the protein stability index is, setting by setting: (treatment: DMSO) 4.43 ± 0.16; (treatment: MLN4924 1 uM, 8 h) 4.39 ± 0.22.

Take MGCTLSAEDKAAVERSKMIDRNLR [GNAI1]: the protein stability index (treatment: DMSO) was determined as 4.64 ± 0.32 and the protein stability index (treatment: MLN4924 1 uM, 8 h) was 4.54 ± 0.1.

For FKDEYKSENIKLREENEKLRLENS [CCDC89], the protein stability index by setting is: (treatment: DMSO) 5.25 ± 0.15; (treatment: MLN4924 1 uM, 8 h) 5.2 ± 0.15.

For NCNWFCEGSFNGSEKETMQFLNDR [KRT33B], the protein stability index reads like this: (treatment: DMSO) 3.54 ± 0.35; (treatment: MLN4924 1 uM, 8 h) 3.61 ± 0.19.

With FQKTKNLLTGETEADPEMIKRAED [CLPTM1], the protein stability index was 5.01 ± 0.42 (treatment: DMSO) and 5.31 ± 0.17 (treatment: MLN4924 1 uM, 8 h).

In the case of ERILGPSHPDTSYYIRYRGAVYAD [FEM1A], the protein stability index stood at 2.94 ± 0.2 (treatment: DMSO) and 2.92 ± 0.29 (treatment: MLN4924 1 uM, 8 h).

For VTTEQLGAKMTERGSVARPTQGPE [PXN], the protein stability index worked out at 5.35 ± 0.17 (treatment: DMSO) and 5.14 ± 0.38 (treatment: MLN4924 1 uM, 8 h).

For the sequence RTHTGEKPYTCSVCGKSFSRTTCL [ZNF8], the protein stability index reads like this: (treatment: DMSO) 2.92 ± 0.31; (treatment: MLN4924 1 uM, 8 h) 3.35 ± 0.54.

Consider RFFGPNAEISQPPALSQLVNLYLG [TCF25], for which the protein stability index is 3.05 ± 0.19 (treatment: DMSO) and 2.96 ± 0.36 (treatment: MLN4924 1 uM, 8 h).

As to LQRNPKHELTAKYLNYYQGMLDVA [P3H4], the protein stability index runs as follows: (treatment: DMSO) 2.3 ± 0.13; (treatment: MLN4924 1 uM, 8 h) 2.39 ± 0.41.

For the sequence SMNWGINLLISLTFLTVTDLIGLP [SLC2A12], the protein stability index is 3.3 ± 0.18 (treatment: DMSO) and 3.02 ± 0.12 (treatment: MLN4924 1 uM, 8 h).

For the sequence CEERWLVIDRKVYNISEFTRRHPG [FADS1], the protein stability index runs as follows: (treatment: DMSO) 2.1 ± 0.3; (treatment: MLN4924 1 uM, 8 h) 2.15 ± 0.33.

For DLLFIVDTMLEEVENKEKDSNMPH [CEP70], the protein stability index is 2.29 ± 0.24 (treatment: DMSO) and 2.76 ± 0.38 (treatment: MLN4924 1 uM, 8 h).

With QLSAPHCKKLSLELGGKNPAIIFE [ALDH8A1], the protein stability index is, setting by setting: (treatment: DMSO) 2.8 ± 0.26; (treatment: MLN4924 1 uM, 8 h) 2.9 ± 0.43.

As for YESGYAFLPDLLIFQMVIICLMCV [SMG5], the protein stability index came to 3.23 ± 0.32 (treatment: DMSO) and 3.16 ± 0.57 (treatment: MLN4924 1 uM, 8 h).

Consider MPALEGAPHTPPLPRRPRKGSSEL [RNF208], for which the protein stability index was found to be 5.11 ± 0.27 (treatment: DMSO) and 5.21 ± 0.22 (treatment: MLN4924 1 uM, 8 h).

Turning to LALFSHLVNHVNIRLQAELEEGEN [SMG5], the protein stability index is, setting by setting: (treatment: DMSO) 2.5 ± 0.21; (treatment: MLN4924 1 uM, 8 h) 2.7 ± 0.44.

DGDDKVFRRAPSWRKRFRPREHHG [PPFIA4] yielded a protein stability index (treatment: DMSO) of 3.48 ± 0.55 and a protein stability index (treatment: MLN4924 1 uM, 8 h) of 4.58 ± 0.14.

Sequence GLDFHRFYFENLWSRNSKPVHTTI [CAMK2A] yielded a protein stability index (treatment: DMSO) of 2.28 ± 0.58 and a protein stability index (treatment: MLN4924 1 uM, 8 h) of 2.11 ± 0.32.

The record behind these values is the supplement of paper PMC10567573.
